US7186408 (CAMBRIDGE UNIVERSITY TECHNICAL SERVICES, dated 2007)

Legend:
[1] = biological target: vCD30-Fc (EV Hampstead vCD30 fused to the Fc fragment of human IgG1, baculovirus AcCD30-Fc, purified from Hi5 … (ectromelia virus, strain Hampstead; …)
Human CD30 on K562 cells = biological target: T1, Human CD30 on K562 cells (human, UniProt P28908 19-595); experiment: flow cytometry on K562 cells
T1 construct: also called cell surface CD30; cellular receptors
T1 sequence: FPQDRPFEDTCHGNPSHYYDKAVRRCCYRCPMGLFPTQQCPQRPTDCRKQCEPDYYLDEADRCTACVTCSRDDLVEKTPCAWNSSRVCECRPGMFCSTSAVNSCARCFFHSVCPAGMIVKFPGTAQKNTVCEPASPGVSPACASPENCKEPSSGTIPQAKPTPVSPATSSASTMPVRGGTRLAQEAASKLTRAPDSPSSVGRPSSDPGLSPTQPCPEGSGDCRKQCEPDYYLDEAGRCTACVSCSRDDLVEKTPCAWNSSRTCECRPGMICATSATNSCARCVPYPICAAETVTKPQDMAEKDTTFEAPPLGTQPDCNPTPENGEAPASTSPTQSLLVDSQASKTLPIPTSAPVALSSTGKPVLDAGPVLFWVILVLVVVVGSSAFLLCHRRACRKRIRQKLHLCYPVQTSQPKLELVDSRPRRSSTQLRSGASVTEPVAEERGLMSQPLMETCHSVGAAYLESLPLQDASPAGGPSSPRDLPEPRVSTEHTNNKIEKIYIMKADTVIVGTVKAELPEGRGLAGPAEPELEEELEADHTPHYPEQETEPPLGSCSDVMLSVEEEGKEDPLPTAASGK

[2] = biological target: T2, Recombinant mouse CD30-Fc (R&D Systems) (mouse, UniProt Q60846 19-281); experiment: Scatchard analysis (LIGAND), 2 ng mouse CD30 on protein A FlashPlate with increasing mouse 125I-CD30L
T2 construct: also called moCD30-Fc; not shown: Fc portion of the bought fusion protein
T2 sequence: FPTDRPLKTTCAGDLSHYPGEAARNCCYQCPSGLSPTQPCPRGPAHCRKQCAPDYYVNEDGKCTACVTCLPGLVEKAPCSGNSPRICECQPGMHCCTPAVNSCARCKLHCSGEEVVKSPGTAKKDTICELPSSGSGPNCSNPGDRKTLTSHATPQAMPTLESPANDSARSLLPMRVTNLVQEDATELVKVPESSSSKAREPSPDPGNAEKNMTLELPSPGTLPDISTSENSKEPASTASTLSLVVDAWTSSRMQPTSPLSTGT

B1: Recombinant mouse CD30L (soluble, 6x histidine-tagged, R&D Systems) (ligand, UniProt P32972 68-239, looked up)
chain: QKKDSTPNTTEKAPLKGGNCSEDLFCTLKSTPSKKSWAYLQVSKHLNNTKLSWNEDGTIHGLIYQDGNLIVQFPGLYFIVCQLQFLVQCSNHSVDLTLQLLINSKIKKQTLVTVCESGVQSKNIYQNLSQFLLHYLQVNSTISVRVDNFQYVDTNTFPLDNVLSVFLYSSSD
notes: also called 125I-CD30L; mouse 125I-CD30L
[1]
  Kd: 1 nM
Human CD30 on K562 cells
  binding result: binds
[2]
  Kd: 1 nM
